Measurements taken from patent publication US20160244527A1 (AFFITECH RESEARCH, published 2016).

Key:
[1] = target: T1, CXC chemokine receptor 4 (CXCR4), human (human, UniProt P61073 1-352); assay: EasyCyte flow cytometry, 0.5 µg scFv on 1x10^5 CXCR4-transfected versus non-transfected HEK293T cells; anti-cMyc and RPE goat anti-mouse IgG detection
T1 construct: whole, on cells; also called human CXCR4; fusin
Method: The DT40+CXCR4, HEK293+CXCR4, DT40 and HEK293 cells were harvested from culture flasks, washed 2 times with PBS (400×g, 5 min, 4° C.) and resuspended in PBS containing 0.2% BSA and 0.09% NaN₃. 1×10⁵ cells per well were aliquoted into V-shaped 96-well plates (Greiner Bio-One, Frikenhausen, Germany). The cells were centrifuged (400×g, 5 min, 4° C.) and resuspended in 50 μl ScFvs (10 μg/ml) in PBS containing 0.2% BSA and 0.09% NaN₃. […] After 1 hour incubation (4° C.), the cells were washed three times with 100 μl PBS with 0.2% BSA and 0.09% NaN₃ and incubated for 30 minutes at 4° C. with RPE conjugated goat anti-mouse IgG (F0479, Dako, Denmark) diluted to 5 μg/ml in PBS with 0.2% BSA and 0.09% NaN₃. Cells were washed, resuspended in 200 μl PBS with 0.2% BSA and 0.09% NaN₃, and transferred to a U-shaped 96 well Costar (Corning, Schiphol-Rijik, The Netherlands) plate for flow cytometry using an Easy Cyte device (Guava Technologies, Hayward, Calif., USA).

[2] = target: T2, monkey (Macaca mulatta) CXCR4 (monkey (Macaca mulatta), UniProt P79394 1-352); assay: EasyCyte flow cytometry on HEK293T/17 cells transiently transfected with Macaca mulatta CXCR4, Fugene without DNA as negative control; scFv level according to the example, amount not given
T2 construct: whole, on cells; also called monkey CXCR4; monkey antigen
Method: FACS-binding analyses (EasyCyte) were performed using HEK-293 cells transiently transfected with plasmids encoding either, mouse (Gene bank accession number BC031665) or monkey (Macaca mulatta) CXCR4 (NCBI Accession number NP_001036110). Two experiments were performed, one using a-cMyc and PE-labelled goat anti-mouse IgG antibody, the second using a directly conjugated RPE-c-Myc antibody for detection. In addition, cross-reactivity on IgG level was analysed. In the latter case, antibody binding was detected with PE-conjugated goat anti-human IgG antibody.

[3] = target: T1, CXC chemokine receptor 4 (CXCR4), human; assay: cell-based or functional assay
[4] = target: T1, CXC chemokine receptor 4 (CXCR4), human; assay: flow cytometry (EasyCyte), IgG1 10 µg/ml on CCRF-CEM cells; PBS negative control 3.11
Method: The natural CXCR4⁺ expressing cell line CCRF-CEM was harvested from the culture flasks, washed 2 times with PBS supplemented with 0.2% BSA and 0.09% NaN₃ buffer and aliquoted at 1×10⁵ cells per well into V-shaped 96-well plates (Greiner Bio-One, Frickenhausen, Germany). Cells were pelleted by centrifugation (400 g, 5 min) and then incubated for 60 min at 4° C. with 50 μl IgGs diluted to 10 μg/ml in PBS supplemented with 0.2% BSA and 0.09% NaN₃ buffer. The supernatants were aspirated after a centrifugation step at 400 g for 5 min and the cells were washed another two times with 100 μl PBS supplemented with 0.2% BSA and 0.09% NaN₃ each wash was followed by a centrifugation step (5 min at 400 g). After, the cells were stained for 30 minutes at 4° C. with 50 μl of rPE-conjugated Goat anti-human IgG (AbD Serotec) diluted to 5 μg/ml in with PBS supplemented with 0.2% BSA and 0.09% NaN₃ and incubated for 30 minutes at 4° C. The cells were washed again and re-suspended in 200 μl PBS with 0.2% BSA and 0.09% NaN₃ and transferred to a U-shaped 96-well plate (Corning) for flow cytometry using an EasyCyte device (Guava Technologies, Hayward, Calif., USA).

[5] = target: T1, CXC chemokine receptor 4 (CXCR4), human; assay: cell-based or functional assay; remark: listed apart in the source
[6] = target: T1, CXC chemokine receptor 4 (CXCR4), human; assay: EasyCyte flow cytometry, IgG titration (12 points, three-fold) on Ramos cells naturally expressing CXCR4; RPE goat anti-human IgG detection
Method: The cells were harvested from culture flasks, washed 2 times with PBS (350×g, 5 min, 4° C.) and resuspended in PBS containing 0.2% BSA and 0.09% NaN₃. 1×10⁵ cells per well were aliquoted into V-shaped 96-well plates (Greiner Bio-One, Frikenhausen, Germany). The cells were centrifuged (350×g, 5 min, 4° C.) and resuspended in 50 μl IgG (50 μg/ml) in PBS containing 0.2% BSA and 0.09% NaN₃. Titration was done in twelve points and three fold dilution. […] Cells were washed, resuspended in 200 μl PBS with 0.2% BSA and 0.09% NaN₃, and transferred to a U-shaped 96 well Costar (Corning, Schiphol-Rijik, The Netherlands) plate for flow cytometry using an Easy Cyte device (Guava Technologies, Hayward, Calif., USA).

T1 sequence (P61073 whole entry): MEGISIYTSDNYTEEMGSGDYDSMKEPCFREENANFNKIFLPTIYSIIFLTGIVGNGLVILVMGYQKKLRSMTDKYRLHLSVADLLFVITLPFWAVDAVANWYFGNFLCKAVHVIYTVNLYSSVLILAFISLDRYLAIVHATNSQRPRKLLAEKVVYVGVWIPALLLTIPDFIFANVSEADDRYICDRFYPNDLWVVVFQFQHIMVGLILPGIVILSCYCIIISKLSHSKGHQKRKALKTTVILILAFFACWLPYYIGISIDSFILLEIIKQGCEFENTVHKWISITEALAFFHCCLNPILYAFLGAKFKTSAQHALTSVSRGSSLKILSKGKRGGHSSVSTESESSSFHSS
T2 sequence (P79394 whole entry): as the sequence (P61073 whole entry) above, with M24I, N35H, K38R, R146K, N176S, V214D counted along it

B1: C-1I24 scFv (scFv)
scFv: QVQLVQSGGGVVQPGRSLRLSCAASGFTFSSYGMHWVRQAPGKGLEWVAVISYDGSNKYYADSVKGRFTISRDNSKNTLYLQMNSLRAEDTAVYYCAKDLPITRGTGADYWGQGTLVTVSSKLSGSASAPKLEEGEFSEARVQSVLIQPASVSGSPGQSITISCTGTSSDVGGYNYVSWYQQHPGKAPRLMIYDVTSRPSGVSNRFSGSKSGNTASLTISGLQAEDEADYYCSSYAGSYSVVFGGGTKVTVLAAAGSEQKLISEEDLNSHHHHHH
notes: VH-linker-VL scFv expressed in E. coli TG1 from pHOG21; also called scFv C-1I24; C-1124
binding result [1]: binds | binding result [2]: binds

B2: D-1K21 IgG1 (antibody, V domains shown)
VH: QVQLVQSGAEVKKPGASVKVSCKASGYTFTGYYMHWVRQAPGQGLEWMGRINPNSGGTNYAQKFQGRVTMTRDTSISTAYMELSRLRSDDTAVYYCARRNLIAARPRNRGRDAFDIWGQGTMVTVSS
VL: DIQMTQSPSTLSASVGDRVTITCRASQSIGGSLAWYQQKPGKGPNLLIYAASTLQSGVPSRFSGSGSGTEFTLTISSLQPEDSATYYCQHYESYPLSFGGGTKLEIKR
notes: Full length human IgG1 with kappa light chain; expressed from pLNO, protein A purified, monomer by SEC; also called IgG D-1K21
ADCC, EC50 (ng/mL), IgG [3]: 79.9 ng/mL | ADCC, EC50, IgG, molar [3]: 0.5 nM | ADCC, Max killing (%), CCRF-CEM cells with human PBMCs, IgG [3]: 25.7% | median value (EasyCyte fluorescence) [4]: 179

B3: 9N10 IgG1 (antibody, V domains shown)
VH: QVQLQESGGGLVHPGGSLRLSCAASGFTFSSYWMHWVRQAPGKGLVWVSRINSDGSSTSYADSVKGRFTISRDNAKNTLYLQMNSLRAEDTAVYYCARKILGVGARSRRYFDYWGQGTMVTVSS
VL: DIVLTQTPDSLAVSLGETTTINCKSSQSVLHSSNNKNYLAWYQQKPGQPPKLLIYWASTRESGVPDRFSGSGSGTDFTLTISNLQPEDVAFYYCLQYSTFPRTFGQGTKVEIKR
notes: Full length human IgG1 with kappa light chain
IC50 of inhibition of SDF-1α induced calcium flux, CCRF-CEM cells, IgG [5]: 3.85 nM | fold efficiency in inhibition of calcium flux against C-9P21 IgG [5]: ~8 fold | EC50 (read off the curve) [6]: ~10 nM

B4: C-9P21 IgG1 (antibody, V domains shown)
VH: B3 VH
VL: ETTLTQSPGTLSLSPGERATLSCRASQSVVSNYLAWYQQKPGQAPRLLISGASNRATGISDRFSGSGSGADFTLTISRVEPEDSAVYYCQQFDKSTWTFGQGTKVEIKR
notes: Full length human IgG1 with kappa light chain; expressed from pLNO, protein A purified, monomer by SEC; also called IgG C-9P21
IC50 of inhibition of SDF-1α induced calcium flux, CCRF-CEM cells, IgG [5]: 29 nM | ADCC, EC50 (ng/mL), IgG [3]: 1850 ng/mL | ADCC, EC50, IgG, molar [3]: 12.3 nM | ADCC, Max killing (%), CCRF-CEM cells with human PBMCs, IgG [3]: 63.5% | median value (EasyCyte fluorescence) [4]: 626

B5: C-9P21 scFv (scFv)
scFv: QVQLQESGGGLVHPGGSLRLSCAASGFTFSSYWMHWVRQAPGKGLVWVSRINSDGSSTSYADSVKGRFTISRDNAKNTLYLQMNSLRAEDTAVYYCARKILGVGARSRRYFDYWGQGTMVTVSSKLSGSASAPKLEEGEFSEARVETTLTQSPGTLSLSPGERATLSCRASQSVVSNYLAWYQQKPGQAPRLLISGASNRATGISDRFSGSGSGADFTLTISRVEPEDSAVYYCQQFDKSTWTFGQGTKVEIKAAAGSEQKLISEEDLNSHHHHHH
notes: VH-linker-VL scFv expressed in E. coli TG1 from pHOG21; In the migration and ADCC assays it was cross-linked with anti-cMyc antibody; also called scFv C-9P21
IC50 of inhibition of SDF-1 induced migration of CCRF-CEM cells (Boyden chamber; scFv cross-linked with anti-cMyc) [5]: 2.9 µg/mL | IC50 of inhibition of ligand induced migration of CCRF-CEM cells, molar [5]: ~100 nM | ADCC, EC50 (ng/mL), scFv cross-linked with chimeric anti-cMyc IgG1 [3]: 2.7 ng/mL | ADCC, EC50, scFv, molar [3]: 0.09 nM | binding result [2]: binds

B6: B-1M22 scFv (scFv)
scFv: QVQLVQSGAEVKKPGSSVKVSCKASGGTFSSYAISWVRQAPGQGLEWMGGIIPIFGTANYAQKFQGRVTITADESTSTAYMELRSLRSDDTAVYYCARDRERWLQSAGDYWGQGTLVTVSSKLSGSASAPKLEEGEFSEARVQPVLTQSPSVSVAPGQTARITCGGNNIGSKSVHWYQQKPGQAPVLVVYDDSDRPSGIPERFSGSNSGNTATLTISRVEAGDEADYYCQVWDSSSDHWVFGGGTKLTVLAAAGSEQKLISEEDLNSHHHHHH
notes: VH-linker-VL scFv expressed in E. coli TG1 from pHOG21; also called scFv B-1M22
binding result [2]: binds

B7: B-1M22 IgG1 (antibody, V domains shown)
VH: QVQLVQSGAEVKKPGSSVKVSCKASGGTFSSYAISWVRQAPGQGLEWMGGIIPIFGTANYAQKFQGRVTITADESTSTAYMELRSLRSDDTAVYYCARDRERWLQSAGDYWGQGTLVTVSS
VL: QPVLTQSPSVSVAPGQTARITCGGNNIGSKSVHWYQQKPGQAPVLVVYDDSDRPSGIPERFSGSNSGNTATLTISRVEAGDEADYYCQVWDSSSDHWVFGGGTKLTVLG
notes: Full length human IgG1 with lambda light chain; expressed from pLNO, protein A purified, monomer by SEC; also called IgG B-1M22
ADCC, EC50 (ng/mL), IgG [3]: 116 ng/mL | ADCC, EC50, IgG, molar [3]: 0.8 nM | ADCC, Max killing (%), CCRF-CEM cells with human PBMCs, IgG [3]: 100% | median value (EasyCyte fluorescence) [4]: 1080

B8: C-1I24 IgG1 (antibody, V domains shown)
VH: QVQLVQSGGGVVQPGRSLRLSCAASGFTFSSYGMHWVRQAPGKGLEWVAVISYDGSNKYYADSVKGRFTISRDNSKNTLYLQMNSLRAEDTAVYYCAKDLPITRGTGADYWGQGTLVTVSS
VL: QSVLIQPASVSGSPGQSITISCTGTSSDVGGYNYVSWYQQHPGKAPRLMIYDVTSRPSGVSNRFSGSKSGNTASLTISGLQAEDEADYYCSSYAGSYSVVFGGGTKVTVLG
notes: Full length human IgG1 with lambda light chain; expressed from pLNO, protein A purified, monomer by SEC; also called IgG C-1I24; C-1124
CDC of Ramos cells in presence of human serum, EC50, IgG [5]: 0.7 µg/mL | ADCC, EC50 (ng/mL), IgG [3]: 49.2 ng/mL | ADCC, EC50, IgG, molar [3]: 0.3 nM | ADCC, Max killing (%), CCRF-CEM cells with human PBMCs, IgG [3]: 65% | median value (EasyCyte fluorescence) [4]: 911
